Earlier results on three substances are cited in paper PMC3781210.

Series [1] has as its target Beclin 1 (Homo sapiens) (UniProt Q14457).
Series [2] shares this target. This is another data set of the same source.
Series [3] has the same target. The source holds these as a separate data set.

Read-outs that look alike come from different tables or passages of the source.

Sequence of UniProt Q14457 (Q14457 150-450): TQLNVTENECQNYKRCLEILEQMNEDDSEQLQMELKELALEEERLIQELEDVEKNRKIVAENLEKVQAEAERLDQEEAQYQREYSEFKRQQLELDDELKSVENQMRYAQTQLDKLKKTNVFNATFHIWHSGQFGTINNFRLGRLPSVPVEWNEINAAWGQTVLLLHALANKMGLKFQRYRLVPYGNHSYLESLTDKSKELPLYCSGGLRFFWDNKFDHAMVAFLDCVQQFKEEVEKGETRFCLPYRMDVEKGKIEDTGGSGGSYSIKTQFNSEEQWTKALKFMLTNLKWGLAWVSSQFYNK

On to Bcl-2 (from UniProt P10415), for which, in the series with Beclin 1 (Homo sapiens) [1], the Kd – broadly, a measure of binding affinity in units of concentration – was 1700 nM.

As for Bcl-XL (from UniProt Q07817), the Kd with Beclin 1 (Homo sapiens) [2] was 1700 nM.

With vBcl-2 (from UniProt P89884), the Kd with Beclin 1 (Homo sapiens) [3] is 40 nM.
